For assay [1], the target named is T1, monkey CD137 protein (Biacore) (cynomolgus monkey, UniProt Q07011 24-179 (human entry), limits assumed).
T1 construct: Construct used as SPR analyte not described; also called Cyno CD137
T1 chain: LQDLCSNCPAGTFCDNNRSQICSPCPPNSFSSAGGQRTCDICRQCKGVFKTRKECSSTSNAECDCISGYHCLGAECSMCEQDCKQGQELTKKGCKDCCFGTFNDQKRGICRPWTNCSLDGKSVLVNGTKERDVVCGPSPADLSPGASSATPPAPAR
The assay can be described thus: SPR Biacore, IgG captured.

Assay [2] deals with T2, full-length human CD137 on the cell surface (human, UniProt Q07011 18-255).
T2 construct: also called Human WT
The assay can be described thus: flow cytometry ligand competition, HEK293F cells with human CD137, antibody 100 nM then 33 nM biotinylated CD137L, streptavidin-Alexa 647.

Assay [3] addresses T3, full-length monkey CD137 on the cell surface (cynomolgus monkey, UniProt Q07011 24-179 (human entry)).
T3 chain: T1 chain
The assay can be described thus: flow cytometry, PMA/ionomycin-activated monkey T cells, antibody 100 nM. In general terms: A flow cytometer gives signals particle by particle.

The target of a further assay is T4, Hu_CRD2 (human, UniProt Q07011 46-86, limits assumed).
T4 construct: also called human CD137 CRD2
T4 chain: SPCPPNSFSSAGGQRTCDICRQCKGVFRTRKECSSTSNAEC
The assay can be described thus: flow cytometry, yeast display.

For assay [4], the target named is T2, full-length human CD137 on the cell …. Description: flow cytometry, yeast display.
In assay [5] the target is T5, full-length mouse CD137 on the cell surface (mouse, UniProt P20334 24-178).
T5 sequence: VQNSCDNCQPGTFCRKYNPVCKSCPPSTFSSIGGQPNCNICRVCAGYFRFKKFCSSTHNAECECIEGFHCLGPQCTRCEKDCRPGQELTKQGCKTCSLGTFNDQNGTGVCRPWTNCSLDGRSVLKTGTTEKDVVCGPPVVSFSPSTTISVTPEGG
The assay can be described thus: flow cytometry, yeast display.

Assay [6] deals with T2, full-length human CD137 on the cell …. The assay can be described thus: flow cytometry, PMA/ionomycin-activated human T cells, antibody 100 nM.
For assay [7], the target named is T3, full-length monkey CD137 on the cell …. Description: flow cytometry, HEK293F cells expressing CD137 or mutant [Cont.].
In assay [8] the target is T6, CD137-hisFc fusion protein (Sino Biological Cat 10041-H03H) (human, UniProt Q07011 24-186).
T6 construct: Bought; also called recombinant human CD137 (fused with human Fc and His tag); not shown: His tag and human Fc
The assay can be described thus: competition ELISA, human CD137-Fc-His coated, biotinylated CD137L as blocked ligand, neutravidin-HRP.

For assay [9], the target named is T7, human CD137 fused with human FC fragment (human, UniProt Q07011 24-186, limits assumed).
T7 construct: may be the same reagent as CD137-hisFc; also called human CD137 (FC fusion protein); not shown: human Fc fragment
Description: ELISA, coated CD137-Fc.

Assay [10] concerns the target T8, monkey CD137 fused with human FC fragment (cynomolgus monkey, UniProt Q07011 24-179 (human entry), limits assumed).
T8 construct: also called Cyno CD137-Fc; not shown: human Fc fragment
T8 chain: T1 chain
The assay can be described thus: ELISA, coated CD137-Fc. For orientation: In an ELISA, binding on a coated surface is turned into a signal by an enzyme label.

The target of the next assay is T9, Hu_GTF34AAA (human, UniProt Q07011 18-255).
T9 construct: On HEK293F; also called GFT34AAA
T9 chain: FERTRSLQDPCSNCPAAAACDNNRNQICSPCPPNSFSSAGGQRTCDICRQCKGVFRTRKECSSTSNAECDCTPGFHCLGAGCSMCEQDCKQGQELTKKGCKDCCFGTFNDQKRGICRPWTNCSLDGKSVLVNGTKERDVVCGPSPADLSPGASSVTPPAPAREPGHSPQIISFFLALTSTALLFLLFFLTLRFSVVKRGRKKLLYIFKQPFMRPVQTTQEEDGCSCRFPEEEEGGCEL
The assay can be described thus: flow cytometry, HEK293F cells expressing CD137 or mutant [Cont.].

The target of assay [11] is T10, CD27 overexpressed on HEK293F cells (UniProt P26842 20-260, limits assumed).
T10 construct: whole, on cells
T10 sequence (looked up): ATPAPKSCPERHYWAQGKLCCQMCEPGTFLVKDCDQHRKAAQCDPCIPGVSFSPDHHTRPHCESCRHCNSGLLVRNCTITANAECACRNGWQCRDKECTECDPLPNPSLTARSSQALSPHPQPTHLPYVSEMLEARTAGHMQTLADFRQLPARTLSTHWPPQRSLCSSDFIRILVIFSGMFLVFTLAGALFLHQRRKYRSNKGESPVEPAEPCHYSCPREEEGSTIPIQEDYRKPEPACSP
The assay can be described thus: flow cytometry, HEK293F cells expressing the receptor, antibody 100 nM.

The target in assay [12] is T11, OX40 overexpressed on HEK293F cells (UniProt P43489 29-277, limits assumed).
T11 construct: whole, on cells
T11 sequence (looked up): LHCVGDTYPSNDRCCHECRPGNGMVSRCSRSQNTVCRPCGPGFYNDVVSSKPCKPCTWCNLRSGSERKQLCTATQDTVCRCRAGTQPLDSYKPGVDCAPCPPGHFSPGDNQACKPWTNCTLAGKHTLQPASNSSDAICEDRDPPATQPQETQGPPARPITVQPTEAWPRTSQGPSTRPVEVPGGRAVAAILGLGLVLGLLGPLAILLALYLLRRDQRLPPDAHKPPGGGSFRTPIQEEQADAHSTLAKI
Described as above.

Assay [13] concerns the target T5, full-length mouse CD137 on the cell …. The assay can be described thus: flow cytometry, HEK293F.

Where a chain is given by its changes, count along the chain named.

The record followed here is patent US20190055314A1 (ADAGENE, published 2019).

B1: AG10059 (antibody, human IgG4 S228P, kappa, V domains shown)
VH: EVQLVESGGGLVQPGGSLRLSCAASGYSITSGHYWAWIRQAPGKGLEWVSSISGYGSTTYYADSVKGRFTISRDNSKNTLYLQLNSLRAEDTAVYYCARGGSDAVLGDWFAYWGQGTLVTVSS
VL: DIQLTQSPSSLSASVGDRVTITCRASQGIGSFLAWYQQKPGKAPKLLIYDASNLETGVPSRFSGSGSGTDFTLTISSLQPEDFATYYCQQGYYLWTFGQGTKVEIKR
For orientation: Kd means the free concentration of one partner at which half of the binding sites on the other are occupied at equilibrium, for simple one-to-one binding. With B1, the figures for the Kd in assay [1], in assay [9] and in assay [10] were 23.1 nM, 0.8 nM and 0.4 nM, respectively. For the same molecule, the “% in upper right quadrant (CD137L signal)” value in [2] came to 52.9%. Also, the “Median (APC signal of bound biotinylated CD137L)” value in assay [2] came to 46500. The “% of cells positive for antibody binding” value stood at 8.1% in assay [3] and 45.1% in assay [6]. The “% in upper right quadrant” value turned out to be 0.2% with Hu_CRD2, 25.9% in [4], 0.44% in assay [5] and 42.4% in assay [7]. Further, the Mean in the assay with Hu_CRD2 came to 6280; in assay [4], 58600; in assay [5], 9890; with Hu_GTF34AAA, 893. In addition, in [8], the “IC50 (read off the curve)” value is roughly 100 nM. The binding result with Hu_GTF34AAA is recorded as “no binding (tested: 100 nM (as in Example 5))”.

B2: AG10058 (antibody, human IgG4 S228P, kappa, V domains shown)
VH: EVQLVESGGGLVQPGGSLRLSCAASGFSLSTSGVGVGWIRQAPGKGLEWLALIDWDDDKYYSPSLKSRLTISRDNSKNTLYLQLNSLRAEDTAVYYCARGGSDTVLGDWFAYWGQGTLVTVSS
VL: B1 VL with G28S, I29V, G30S, S31P, F32Y, N53S, T56S, Y93S
With B2, the Kd in assay [1] worked out at 9.3 nM; in [13] it was 10.1 nM; in assay [9], 0.2 nM; in assay [10], 0.3 nM. Also, the Mean in assay [11] was found to be 6660; in assay [12], 189000; with Hu_CRD2, 13200; in assay [4], 64700; in assay [5], 12600; in the assay with Hu_GTF34AAA, 878. Moreover, the “% in upper right quadrant (CD137L signal)” value in [2] came to 37.6%. In addition, in assay [2], the “Median (APC signal of bound biotinylated CD137L)” value was found to be 22300. Also, the “% of cells positive for antibody binding” value in assay [3] came out at 9.8%; in [6] it was 52%. Further, the “% in upper right quadrant” value in the assay with Hu_CRD2 came out at 0.24%; in assay [4], 30.7%; in [5], 41.1%. Moreover, the “IC50 (read off the curve)” value in assay [8] was roughly 40 nM. In the assay with Hu_GTF34AAA, the binding result is recorded as “no binding (tested: 100 nM (as in Example 5))”.
